Reference: PMC10689493 (Nature Communications, 2023)

Molecular target: T1, biotinylated SARS-CoV-2 Spike protein (WA-2, 2 P) (SARS-CoV-2 WA-2 (entry: reference …, UniProt P0DTC2, stabilised, biotinylated))
T1 construct: source: bought: R&D systems
Assay: SPR
Details: both partners purified

Binder	Kd [nM]
S2P6 FAB fragment (Fab, V domains shown) VH: EVQLVQSGAEVKKPGASVKVSCKASGYTFTSQYMHWVRQAPGQGLEWIGIINPSGVHTSYAQKFQGRVTLTRDTSTSTLYMELSSLRSEDTAVYYCARGSPKGAFDYWGQGTLVTVSS VL: not shown	0.4
DH1057.1 FAB fragment (Fab, V domains shown) VH: EVQLVESGTEVKKPGASVKVSCKTSGYIFTNYYIHWVRQAPGQGLEWMGIFNPNGGGTSYAQKFQGRITLTGNTSANTGYMVLRSLTSEDTAVYYCARDPRTSGDNDGFDMWGQGTKVTVSS VL: VLTQSPATLSLSPGERATLSCRASQSLSSYNYLAWYQQKPGQAPRLLIYAASKRATGIPARFSGSGSGTDFTLTISSLEPEDFAVYFCQQRSNRPPAWTFGQGTKVEIK	11.5
